Drawing on paper PMC8062530, this text covers Kd for 1 molecule.

The target in this assay is Siglec-9, Siglec-10, and Siglec-14. Description: BLI; Fc-fusions of the Siglec proteins immobilised on Protein A biosensors (ForteBio) at 5 µg/mL; PTGFRN extracellular domain in 2-fold serial dilutions starting at 100 µg/mL; equilibrium dissociation constants calculated with ForteBio Data Analysis software v. 10.0.

B1: extracellular domain of PTGFRN (aa 26-832) with a C-terminal histidine tag (domain or fragment)
chain: VPTATLVRVVGTELVIPCNVSDYDGPSEQNFDWSFSSLGSSFVELASTWEVGFPAQLYQERLQRGEILLRRTANDAVELHIKNVQPSDQGHYKCSTPSTDATVQGNYEDTVQVKVLADSLHVGPSARPPPSLSLREGEPFELRCTAASASPLHTHLALLWEVHRGPARRSVLALTHEGRFHPGLGYEQRYHSGDVRLDTVGSDAYRLSVSRALSADQGSYRCIVSEWIAEQGNWQEIQEKAVEVATVVIQPSVLRAAVPKNVSVAEGKELDLTCNITTDRADDVRPEVTWSFSRMPDSTLPGSRVLARLDRDSLVHSSPHVALSHVDARSYHLLVRDVSKENSGYYYCHVSLWAPGHNRSWHKVAEAVSSPAGVGVTWLEPDYQVYLNASKVPGFADDPTELACRVVDTKSGEANVRFTVSWYYRMNRRSDNVVTSELLAVMDGDWTLKYGERSKQRAQDGDFIFSKEHTDTFNFRIQRTTEEDRGNYYCVVSAWTKQRNNSWVKSKDVFSKPVNIFWALEDSVLVVKARQPKPFFAAGNTFEMTCKVSSKNIKSPRYSVLIMAEKPVGDLSSPNETKYIISLDQDSVVKLENWTDASRVDGVVLEKVQEDEFRYRMYQTQVSDAGLYRCMVTAWSPVRGSLWREAATSLSNPIEIDFQTSGPIFNASVHSDTPSVIRGDLIKLFCIITVEGAALDPDDMAFDVSWFAVHSFGLDKAPVLLSSLDRKGIVTTSRRDWKSDLSLERVSVLEFLLQVHGSEDQDFGNYYCSVTPWVKSPTGSWQKEAEIHSKPVFITVKMDVLNAFKYP
Usually Kd stands for the free concentration of one partner at which half of the binding sites on the other are occupied at equilibrium, for simple one-to-one binding. Take B1: the Kd is 700 to 4000 nM.
